The target in assay [1] is OsPPR676 (recombinant, Expi293) (rice). Kind of assay: MST; Monolith NT.115; 100 nM target protein labelled with His-Tag Labeling Kit RED-tris-NTA 2nd generation, serial dilutions of unlabelled ligand; PBS with 0.05% Tween 20; 35% MST power, 60% LED power, 24°C.
In assay [2] the target is Osj10gBTF3 (recombinant, Expi293) (rice). Described as above.

The record followed here is article PMC8377413.

On to “OsCpn60 (recombinant, Expi293) (natural protein)”, for which the Kd (in general, the equilibrium constant for the complex coming apart) in assay [1] came out at 15.1 µM; in assay [2] it was 9.8 µM. With “OsPPR676 (recombinant, Expi293) (natural protein)”, in assay [2], the Kd worked out at 24.3 µM.
